US20240279344A1 (CDR LIFE, published 2024)
Changes are numbered by the printed parent chain.

B1: M0751 (VHH)
VHH: EVQLVESGGGLVQPGGSLRLSCAASGFSFRLYTMSWVRQAPGKGLEWVSSISSGGGVVTTYADSAKGRFTISRDNDKNTLTLQMNSLKPEDTAVYYCAQGERRGQGTQVTVSS
notes: Llama-derived VHH
B2: M0752 (VHH)
VHH: EVQLVESGGGLVQPGGSLRLSCAASGFTFSNYGMSWVRQAPGKGLEWVSSIGSGGRITTYLDSVKGRFTISRDNAKNTLYLQMNSLKSEDTAVYYCESGGYRGQGTQVTVSS
notes: Llama-derived VHH
B3: M0702 (Fab, V domains shown)
VH: QEQLEESGGGLVTPGTPLTLTCTASGFSLSSYAMIWVRQAPGKGLEWIGTINDGGTAFYANWVKGRFTISRTSTTVDLKMTSPTTEDTATYFCARAYGSNGDVYWGYVNLWGQGTLVTVSS
VL: ELVMTQTPASVSEPVGGTVTIKCQASQSIGSNLAWYQQKPGQPPKLLIYAAANLASGVSSRFKGSRSGTEYTLTISGVQAADAATYYCQQGYSSSNVANVFGGGTELEILR
B4: M0705 (Fab, V domains shown)
VH: QQQLVESGGRLVTPGTPLTLTCTASGIDLNSNAMSWVRQGPGKGLEWIGDIWSGGYTDYASWAKGRFTISKTSTTVDLKMTSLTAADTATYFCARDRLAGDGVVDYDLWGQGTLVTVSS
VL: ELDMTQTPASVEVAVGGTVTIKCQASQNIYSNLAWYQQKPGQRPKLLIYGASTLASGVPSRFKGSGSGTEYTLTINGVQAADAATYYCQQGFSSSNVDNVFGGGTEVVVKR
B5: M0707 (Fab, V domains shown)
VH: QQQLEESGGGLVTPGTPLTLTCTVSGIDLSSYAMGWVRQAPGKGLEWIGTINDGGSAFYASWVKGRFTISRTSTTVDLKITSPTAEDTATYFCAKTYGTNGDVYWGYFNLWGQGTLVTVSS
VL: ELVMTQTPASVSEPVGGTVTIKCQASQSIGSNLAWYQQKPGQPPKLLIYYESILASGVPSRFSGSGSGTEYTLTISGAQADDAATYYCQQGYSSSNILNAFGGGTEVVVKR
B6: M0708 (Fab, V domains shown)
VH: QSVEESGGRLVTPGTPLTLTCTVSGFSLSNYAMSWVRQAPGKGLEYIGIVSSGGTTYYASWAKGRFTISKTSTTVDLKITSPTTEDTATYFCAKDLYYGPTTYSAFNLWGQGTLVTVSS
VL: SELVLTQPQSVSGSLGQTVSISCKRARNNIEDYYVHWYQQHPGRSPTIVIHKDDQRPSGVPDRFSGSIDSTSNSASLTITGLLAEDEADYFCQSFDNNANPVFGGGTQLTVTG
B7: M0710 (Fab, V domains shown)
VH: B6 VH with E4K
VL: B6 VL with N28D, H41Y, R44K, S45T, H51Y, P101V
B8: M0762 (Fab, V domains shown)
VH: QSVKESGGRLVTPGTPLTLTCTASGFTISSSAISWVRQAPGKGLEYIGIIRSGGTTDYASWAKGRFAISKTSTTVDLKITSPTTEDTATYFCARDPPYITSTYFDLWGQGTLVTVSS
VL: SELVLTQPQSVSGSLGQTVSISCKRARDSVESYDVHWYQQHPGKTPTIVIYKDDQRPSGVPDRFSGSIDSTSNSASLTITGLLAEDEADYFCQSFDGDAVVFGGGTQLTVTG
B9: M0766 (Fab, V domains shown)
VH: PEQLEESGGGLVTPGGVLTLTCTASGFSFSSYGVNWVRQAPGKGLEWIGFIFGDGTTYYANWAKGRFTISKTSTTVDLKMTSPTTEDTATYFCARDGYGGYDYIINLWGQGTLVTVSS
VL: AQVLTQTPASVSAAVGGTVSISCQSSQSVVNNNWLAWYQQKPGQPPKLLIYKASTLESGVPSRFKGSGSGTQFTLTISGVQADDAATYYCLGEFSCSSADCHAFGGGTELEILR

Target: T1, HLA-A2/MAGE-A4 complex, recombinant (HLA-A*02:01 extracellular domain, human b2m, MAGE-A4 peptide 230-239 …) (human, UniProt P04439 25-299 at identity 0.94); P61769 21-119)
T1 construct: also called MAGE-A4 pMHC; MAGE-A4/HLA-A2 complex
Assay: phage display biopanning and screening

binding result	Binder
binds	B1
binds	B2

Target: T1, HLA-A2/MAGE-A4 complex, recombinant …
Assay: direct ELISA, plate coated with HLA-A2/MAGE-A4 complex, serial dilution of the antibody
Method: All available hits were evaluated for their ability to bind MAGE-A4/HLA-A2 complex and a control peptide/HLA-A2 complex in a direct binding ELISA assay. […] Briefly, 96 well ELISA plates were coated with purified human MAGE-A4/HLA-A2 complex or control HLA-A2 complex. Serial dilutions of antibody molecules were added to the plate and detected by an anti-kappa light chain-HRP (Invitrogen) or a purified rabbit anti-VHH (QVQ) followed by goat anti-rabbit IgG(H+L) HRP (Southern Biotech). […] 5B.

EC50 (read off the curve)	binding result	Binder
~600 pM		B3
	binds	B4
	binds	B5
	binds	B6
	binds	B7
	binds	B8
	binds	B9
